The results in this text go back to paper PMC12421323.

The target in series [1] is T1, nucleolin (C23) (UniProt P19338 2-710). Description: competition.
In series [2] the target is T1, nucleolin (C23). Description: EMSA. (In general: A gel shift assay detects complexes by their altered migration in electrophoresis.)
In series [3] the target is T1, nucleolin (C23). The series is described as follows: EMSA. This is another data set of the same source.

T1 sequence (P19338 2-710): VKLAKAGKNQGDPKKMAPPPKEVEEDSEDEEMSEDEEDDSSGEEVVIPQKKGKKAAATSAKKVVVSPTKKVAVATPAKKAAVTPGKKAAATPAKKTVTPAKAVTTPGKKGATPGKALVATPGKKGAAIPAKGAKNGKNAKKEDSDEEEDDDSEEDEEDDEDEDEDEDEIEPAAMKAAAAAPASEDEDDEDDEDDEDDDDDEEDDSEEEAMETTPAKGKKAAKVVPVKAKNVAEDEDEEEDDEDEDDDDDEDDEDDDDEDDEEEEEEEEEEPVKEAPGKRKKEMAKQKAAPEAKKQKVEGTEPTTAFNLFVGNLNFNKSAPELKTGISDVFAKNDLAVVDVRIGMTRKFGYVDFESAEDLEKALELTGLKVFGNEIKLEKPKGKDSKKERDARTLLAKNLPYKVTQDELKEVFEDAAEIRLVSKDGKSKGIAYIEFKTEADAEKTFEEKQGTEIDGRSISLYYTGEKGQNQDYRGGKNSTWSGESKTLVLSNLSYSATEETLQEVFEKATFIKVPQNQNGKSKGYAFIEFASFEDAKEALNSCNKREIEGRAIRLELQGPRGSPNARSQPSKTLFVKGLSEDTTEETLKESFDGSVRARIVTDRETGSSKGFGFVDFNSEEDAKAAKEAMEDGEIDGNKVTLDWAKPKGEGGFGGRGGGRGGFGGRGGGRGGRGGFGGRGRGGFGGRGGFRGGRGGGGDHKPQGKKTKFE

B1: VEGF G4 (unlabelled) (structured_DNA)
DNA: TTGGGCGGGCCGGGGGCGGG
Take B1: the binding result with nucleolin (C23) [1] is given as “binds”.

B2: ssRNA 2 (ssRNA)
RNA: UGCUUACGUAGCGUGCCUUA
On to B2, for which the binding result with nucleolin (C23) [2] is “binds”.

B3: VEGF G4 (structured_DNA)
DNA: TTGGGCGGGCCGGGGGCGGG
Turning to B3, in the series with nucleolin (C23) [3], the binding result was “binds”.
